Experimental data from patent US20090196913A1, “Anti-Alpha-V Immunoliposome Composition, Methods, and Uses” (priority 2007, published 2009).

What was measured:
A375.S2 cells = experiment: Binding and internalization at 37° C., confocal microscopy; assay type: cell-based, human; conditions: 37° C. for 10 min, washed, 1 hour at 37° C.
Experimental: These targeted-liposomes were used in the cytotoxicity assay using the various cells lines, as described below. A375.S2 cells were harvested by scraping and then resuspended to obtain individualized cells and rejuvenated for 1 hour, at 37° C. About 1 million cells of each tumor type were counted and distributed into individual centrifugation tubes. The tubes were spun to obtain a cell pellet. […] Cells were treated with the liposome formulations containing either a doxorubicin payload or a fluorescent marker (Dextran Alexa Fluor 488). Treatment was terminated by adding 1 mL of washing media (serum free), vortexing briefly, and centrifuging to recover a cell pellet The cells in the pellet were resuspend in washing media, vigorously shaken for 10 minutes at 37° C. and then centrifuged again (440 rpm). The cell pellet was left in 100 μL of media, an aliquot of 8 μL was taken and placed on a glass slide for observation under a confocal microscope.

integrin αvβ3 [1] = target: T1, integrin αvβ3 (Homo sapiens, UniProt P06756); experiment: scFv binding ELISA on integrin-coated plates; conditions: detected by HRP anti-His Ab and anti-CNTO95 Ab (c508)
T1 construct: purchased Chemicon International Inc
T1 sequence (P06756 31-889 limits assumed): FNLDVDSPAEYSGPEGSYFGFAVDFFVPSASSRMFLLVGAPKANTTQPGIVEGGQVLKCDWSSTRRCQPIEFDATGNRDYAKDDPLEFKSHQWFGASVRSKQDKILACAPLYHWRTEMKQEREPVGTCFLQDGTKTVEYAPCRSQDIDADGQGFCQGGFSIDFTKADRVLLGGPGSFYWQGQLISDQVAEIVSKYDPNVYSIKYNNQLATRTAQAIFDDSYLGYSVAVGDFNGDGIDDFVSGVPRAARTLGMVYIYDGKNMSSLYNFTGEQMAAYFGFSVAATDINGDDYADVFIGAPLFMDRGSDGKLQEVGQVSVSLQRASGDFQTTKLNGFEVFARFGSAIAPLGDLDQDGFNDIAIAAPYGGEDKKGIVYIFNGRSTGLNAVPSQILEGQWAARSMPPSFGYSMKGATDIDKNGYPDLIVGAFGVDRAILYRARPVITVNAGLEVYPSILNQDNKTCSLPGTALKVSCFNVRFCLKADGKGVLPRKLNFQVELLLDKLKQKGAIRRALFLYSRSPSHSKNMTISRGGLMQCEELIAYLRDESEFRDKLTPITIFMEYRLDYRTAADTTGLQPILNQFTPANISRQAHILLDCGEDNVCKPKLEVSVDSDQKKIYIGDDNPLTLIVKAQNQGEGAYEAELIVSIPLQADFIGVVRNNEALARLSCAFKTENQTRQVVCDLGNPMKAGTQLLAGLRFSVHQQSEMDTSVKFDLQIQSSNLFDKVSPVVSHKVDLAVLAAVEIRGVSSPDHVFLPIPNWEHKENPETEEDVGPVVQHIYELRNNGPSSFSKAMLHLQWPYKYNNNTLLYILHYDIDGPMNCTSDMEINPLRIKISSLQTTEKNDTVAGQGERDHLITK
T1 sequence (P06756 891-1048 partner limits assumed): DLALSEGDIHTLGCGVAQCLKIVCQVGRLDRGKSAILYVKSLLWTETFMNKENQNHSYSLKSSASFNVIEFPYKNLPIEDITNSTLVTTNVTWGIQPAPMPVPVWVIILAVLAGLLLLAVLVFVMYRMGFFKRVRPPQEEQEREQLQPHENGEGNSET
T1 sequence (P05106 27-788 partner): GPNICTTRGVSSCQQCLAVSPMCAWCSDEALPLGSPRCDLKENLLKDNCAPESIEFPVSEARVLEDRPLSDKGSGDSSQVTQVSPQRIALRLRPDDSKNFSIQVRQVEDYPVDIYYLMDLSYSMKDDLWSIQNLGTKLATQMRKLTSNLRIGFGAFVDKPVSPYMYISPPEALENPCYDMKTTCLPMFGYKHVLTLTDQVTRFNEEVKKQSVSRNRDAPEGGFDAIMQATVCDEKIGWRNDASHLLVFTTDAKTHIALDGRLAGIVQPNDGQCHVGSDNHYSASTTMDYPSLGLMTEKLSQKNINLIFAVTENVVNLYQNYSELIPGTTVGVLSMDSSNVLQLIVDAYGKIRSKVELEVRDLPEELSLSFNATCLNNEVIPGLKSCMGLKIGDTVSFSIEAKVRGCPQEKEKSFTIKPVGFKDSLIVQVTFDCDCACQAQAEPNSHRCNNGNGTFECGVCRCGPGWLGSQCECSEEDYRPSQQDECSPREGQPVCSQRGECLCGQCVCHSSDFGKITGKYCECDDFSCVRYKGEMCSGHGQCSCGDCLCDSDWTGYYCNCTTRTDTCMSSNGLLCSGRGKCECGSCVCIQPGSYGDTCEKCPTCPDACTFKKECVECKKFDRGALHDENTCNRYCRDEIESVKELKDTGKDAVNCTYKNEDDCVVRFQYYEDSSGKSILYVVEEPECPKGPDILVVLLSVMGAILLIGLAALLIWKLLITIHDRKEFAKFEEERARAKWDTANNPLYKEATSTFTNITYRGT
Experimental: (§1) The binding affinity of scFv CNTO95 was measured using a validated sandwich enzyme-linked immunoassay. The 96-well plates (Coasta, high binding plate) were coated with 100 ul of integrin αvβ3 or αvβ5 (Chemicon International Inc ) at 1 ug/ml in coating buffer (0.75 g Na2CO3 and 1.45 g NaHCO3 in 500 ml H2O) and incubated overnight at 4° C. The plates were blocked with Superblock blocking buffer in PBS (Pierce) at room temperature for 1 hr. Wells were washed with PBS+0.05% Tween 20 between each step. Controls and scFv purified protein were diluted serially at 3-fold with TBST, and added to the coated wells in duplicate, and incubated at 37° C. for 2 hrs. Two methods were used to detect the binding. For anti-his ELISA 1:1000 diluted HRP mouse anti-his antibody were added to each well and incubated for 1 hr. For the anti-CNTO95 anti-idiotype ELISA, an aliquot of 1:1000 diluted 1 mg/ml C508 antibody was added to each well and incubated for 1 hr. […]
(§2) The Elisa was developed using OPD tablet (Sigma) in development buffer for 15 min at room temperature. […] The binding affinity was measured in a plate reader at 490 nm. In the assay, purified CNTO95 scFv protein from E. coli bound both αvβ3 and αvβ5 integrin proteins (FIG. 14) as shown for integrin-coated ELISA plates and was detected by HRP anti-His Ab as well as the anti-CNTO95 Ab (c508).

integrin αvβ5 [2] = target: T2, integrin αvβ5 (Homo sapiens, UniProt P06756); experiment: scFv binding ELISA on integrin-coated plates; conditions: detected by HRP anti-His Ab and anti-CNTO95 Ab (c508)
T2 construct: purchased Chemicon International Inc
T2 sequence (P06756 31-889 limits assumed): as the sequence (P06756 31-889 limits assumed) above
T2 sequence (P06756 891-1048 partner limits assumed): as the sequence (P06756 891-1048 partner limits assumed) above
T2 sequence (P18084 24-799 partner): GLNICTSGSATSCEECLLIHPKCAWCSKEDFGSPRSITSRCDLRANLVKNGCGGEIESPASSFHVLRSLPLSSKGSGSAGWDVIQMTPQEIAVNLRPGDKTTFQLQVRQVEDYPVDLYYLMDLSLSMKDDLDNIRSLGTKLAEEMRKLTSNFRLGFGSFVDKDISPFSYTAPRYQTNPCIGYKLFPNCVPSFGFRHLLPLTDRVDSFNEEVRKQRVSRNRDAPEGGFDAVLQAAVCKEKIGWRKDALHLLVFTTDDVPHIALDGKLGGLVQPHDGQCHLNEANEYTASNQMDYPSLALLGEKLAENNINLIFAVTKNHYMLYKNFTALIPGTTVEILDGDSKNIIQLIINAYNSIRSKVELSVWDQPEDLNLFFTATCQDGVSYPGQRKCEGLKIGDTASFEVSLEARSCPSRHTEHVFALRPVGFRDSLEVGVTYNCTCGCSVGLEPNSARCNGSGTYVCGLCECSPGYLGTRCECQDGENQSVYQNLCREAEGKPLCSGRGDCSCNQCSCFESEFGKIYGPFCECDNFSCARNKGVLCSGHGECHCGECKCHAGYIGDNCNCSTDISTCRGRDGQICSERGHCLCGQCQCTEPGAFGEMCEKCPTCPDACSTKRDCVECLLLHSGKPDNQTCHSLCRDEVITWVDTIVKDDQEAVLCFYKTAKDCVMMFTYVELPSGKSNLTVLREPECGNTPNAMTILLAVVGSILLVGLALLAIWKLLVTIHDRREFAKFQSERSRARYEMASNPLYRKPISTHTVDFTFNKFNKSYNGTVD
Experimental: as §1, §2

integrin αvβ3 [3] = target: T1, integrin αvβ3; experiment: scFv vs Mab integrin competition assay; assay type: binding; conditions: αvβ3 coated plate, CNTO95 mAb at 0.8 nM
Experimental: (§3) To compare the binding affinity of scFv CNTO95 and CNTO 95 mAb, the 96-well plates were coated with 100 ul of integrin αvβ3 or αvβ5 as described above. CNTO95 mAb was added to each well at 0.8 nM for αvβ3 coated plate or 0.2 nM for αvβ5 coated plate. Controls and scFv purified protein diluted serially at 3-fold with TBST were added to the coated wells in duplicate. The mix of CNTO95 mAb and sFv were incubated at 37° C. for 2 hrs. The detection antibody was 1:10K dilution of peroxidase conjugated affinipure F(ab′)2 fragment Goat anti-human IgG, Fc fragment specific (minimal cross reaction to Bovine, Horse and mouse serum protein) (Jackson Immunoresearch ). The antibody was incubated on the plate 1 hr at 37° C. and the color was developed and read as above. CNTO95 mAb binding to both alpha-V-integrins was competed with the […] (FIGS. 15A and B).

integrin αvβ5 [4] = target: T2, integrin αvβ5; experiment: scFv vs Mab integrin competition assay; assay type: binding; conditions: αvβ5 coated plate, CNTO95 mAb at 0.2 nM
Experimental: as §3

| Compound | binding and internalization (confocal microscopy) (A375.S2 cells) | binding to integrin-coated ELISA plates (integrin αvβ3 [1]) | binding to integrin-coated ELISA plates (integrin αvβ5 [2]) | competition with CNTO95 mAb for integrin binding (integrin αvβ3 [3]) | competition with CNTO95 mAb for integrin binding (integrin αvβ5 [4]) |
| --- | --- | --- | --- | --- | --- |
| COc1cccc2c1C(=O)c1c(O)c3c(c(O)c1C2=O)C[C@@](O)(C(=O)CO)C[C@@H]3O[C@H]1C[C@H](N)[C@H](O)[C@H](C)O1 [free dox, doxorubicin] | drug internalization is evident | – | – | – | – |
| CNTO95 scFv: single chain variable fragment of CNTO 95, VH-(Gly4Ser)3-VL, R18L, 6×His tag and Gly4Cys (SEQ ID NO: 4) | – | bound | bound | effectively competes | effectively competes |
